# Results published in article PMC3303844, “C-Terminal Extension of the Yeast Mitochondrial DNA Polymerase Determines the Balance between Synthesis and Degradation”.
# B1: 45/25 primer-template (D45/D25) (dsDNA)
# DNA 1: GGACGGCATTGGATCGAGGTTGAGTTGGTTGGACGGCTGCGAGGC
# DNA 2: GCCTCGCAGCCGTCCAACCAACTCA
# Key:
# Details in all cases: protein: recombinant; tags: N-terminal 6xHis; label: 32P at 5' end of D25 primer; 25 bp duplex, 5' overhang 20 nt on D45 (recessed primer 3' end)
# [1] = molecular target: T1, FL-Mip1 (mitochondrial DNA polymerase gamma) (Saccharomyces cerevisiae, UniProt P15801 30-1254); assay: EMSA; no Mg2+ or dNTP in binding mix; EMSA: 1 nM substrate, 0.2-12.5 nM polymerase, 20 mM Tris-HCl pH 8.0, 40 mM KCl, 10% glycerol, 0.1 mg/ml BSA, 2 mM DTT, 2 min at 0°C; native 8% Tris-glycine gel
# T1 sequence: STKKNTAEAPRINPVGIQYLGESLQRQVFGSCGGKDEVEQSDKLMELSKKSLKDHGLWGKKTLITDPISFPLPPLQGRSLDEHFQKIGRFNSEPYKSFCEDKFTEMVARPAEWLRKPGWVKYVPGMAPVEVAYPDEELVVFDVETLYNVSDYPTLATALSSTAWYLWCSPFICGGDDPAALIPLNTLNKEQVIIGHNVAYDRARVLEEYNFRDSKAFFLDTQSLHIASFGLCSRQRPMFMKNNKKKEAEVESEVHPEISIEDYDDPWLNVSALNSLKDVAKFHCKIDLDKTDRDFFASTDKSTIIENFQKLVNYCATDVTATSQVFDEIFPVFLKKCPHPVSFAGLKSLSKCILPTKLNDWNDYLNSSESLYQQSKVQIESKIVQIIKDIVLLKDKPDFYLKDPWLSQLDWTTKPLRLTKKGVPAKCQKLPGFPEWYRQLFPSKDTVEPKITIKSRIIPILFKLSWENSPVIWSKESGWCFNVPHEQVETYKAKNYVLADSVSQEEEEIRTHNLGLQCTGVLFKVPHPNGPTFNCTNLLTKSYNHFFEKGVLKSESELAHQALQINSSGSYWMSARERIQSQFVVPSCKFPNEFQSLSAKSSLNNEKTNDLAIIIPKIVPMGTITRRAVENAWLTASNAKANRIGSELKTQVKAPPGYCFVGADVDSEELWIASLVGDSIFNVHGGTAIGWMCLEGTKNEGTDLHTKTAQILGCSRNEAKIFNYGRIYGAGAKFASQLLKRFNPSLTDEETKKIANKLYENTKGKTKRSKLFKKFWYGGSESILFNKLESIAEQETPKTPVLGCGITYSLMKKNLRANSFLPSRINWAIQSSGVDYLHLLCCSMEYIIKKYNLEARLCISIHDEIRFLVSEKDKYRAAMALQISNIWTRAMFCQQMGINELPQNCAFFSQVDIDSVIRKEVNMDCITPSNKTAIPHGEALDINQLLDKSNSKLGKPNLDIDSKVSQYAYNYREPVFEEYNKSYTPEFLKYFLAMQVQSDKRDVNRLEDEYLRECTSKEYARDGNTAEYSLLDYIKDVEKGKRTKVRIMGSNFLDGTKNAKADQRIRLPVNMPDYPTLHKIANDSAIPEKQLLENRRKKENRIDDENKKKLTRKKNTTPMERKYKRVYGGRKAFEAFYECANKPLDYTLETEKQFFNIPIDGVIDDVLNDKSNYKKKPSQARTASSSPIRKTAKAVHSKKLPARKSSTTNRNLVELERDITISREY
# Mip1Δ216 = molecular target: T2, Mip1Δ216 (Saccharomyces cerevisiae, UniProt P15801 30-1038, del1039-1254); assay: as above
# T2 sequence: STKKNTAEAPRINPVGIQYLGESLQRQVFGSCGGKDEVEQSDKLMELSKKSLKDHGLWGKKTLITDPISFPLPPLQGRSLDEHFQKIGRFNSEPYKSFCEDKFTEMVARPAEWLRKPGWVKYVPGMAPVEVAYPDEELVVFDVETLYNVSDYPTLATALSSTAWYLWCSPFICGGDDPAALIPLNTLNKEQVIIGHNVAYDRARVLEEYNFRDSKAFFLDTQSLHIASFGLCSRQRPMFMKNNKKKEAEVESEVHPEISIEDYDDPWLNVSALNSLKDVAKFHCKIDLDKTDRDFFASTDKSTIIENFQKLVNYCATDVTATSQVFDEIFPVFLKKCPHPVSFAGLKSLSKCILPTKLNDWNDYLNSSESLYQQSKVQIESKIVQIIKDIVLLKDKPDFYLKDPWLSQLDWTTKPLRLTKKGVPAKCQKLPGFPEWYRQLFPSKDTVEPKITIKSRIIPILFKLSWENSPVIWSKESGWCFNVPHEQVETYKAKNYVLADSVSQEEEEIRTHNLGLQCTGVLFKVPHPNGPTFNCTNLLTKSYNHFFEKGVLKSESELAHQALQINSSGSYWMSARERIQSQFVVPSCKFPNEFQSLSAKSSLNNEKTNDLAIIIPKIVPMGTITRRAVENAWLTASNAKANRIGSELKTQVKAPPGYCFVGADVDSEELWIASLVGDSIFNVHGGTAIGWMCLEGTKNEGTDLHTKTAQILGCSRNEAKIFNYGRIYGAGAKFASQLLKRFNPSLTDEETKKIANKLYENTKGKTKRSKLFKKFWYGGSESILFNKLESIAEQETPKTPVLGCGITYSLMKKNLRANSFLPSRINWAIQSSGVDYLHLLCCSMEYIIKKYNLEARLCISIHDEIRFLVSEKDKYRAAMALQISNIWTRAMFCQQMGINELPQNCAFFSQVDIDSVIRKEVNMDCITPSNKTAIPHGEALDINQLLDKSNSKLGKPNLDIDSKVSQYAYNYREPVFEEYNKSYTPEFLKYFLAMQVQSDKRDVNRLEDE
# Mip1Δ175 = molecular target: T3, Mip1Δ175 (Saccharomyces cerevisiae, UniProt P15801 30-1079, del1080-1254); assay: as above
# T3 sequence: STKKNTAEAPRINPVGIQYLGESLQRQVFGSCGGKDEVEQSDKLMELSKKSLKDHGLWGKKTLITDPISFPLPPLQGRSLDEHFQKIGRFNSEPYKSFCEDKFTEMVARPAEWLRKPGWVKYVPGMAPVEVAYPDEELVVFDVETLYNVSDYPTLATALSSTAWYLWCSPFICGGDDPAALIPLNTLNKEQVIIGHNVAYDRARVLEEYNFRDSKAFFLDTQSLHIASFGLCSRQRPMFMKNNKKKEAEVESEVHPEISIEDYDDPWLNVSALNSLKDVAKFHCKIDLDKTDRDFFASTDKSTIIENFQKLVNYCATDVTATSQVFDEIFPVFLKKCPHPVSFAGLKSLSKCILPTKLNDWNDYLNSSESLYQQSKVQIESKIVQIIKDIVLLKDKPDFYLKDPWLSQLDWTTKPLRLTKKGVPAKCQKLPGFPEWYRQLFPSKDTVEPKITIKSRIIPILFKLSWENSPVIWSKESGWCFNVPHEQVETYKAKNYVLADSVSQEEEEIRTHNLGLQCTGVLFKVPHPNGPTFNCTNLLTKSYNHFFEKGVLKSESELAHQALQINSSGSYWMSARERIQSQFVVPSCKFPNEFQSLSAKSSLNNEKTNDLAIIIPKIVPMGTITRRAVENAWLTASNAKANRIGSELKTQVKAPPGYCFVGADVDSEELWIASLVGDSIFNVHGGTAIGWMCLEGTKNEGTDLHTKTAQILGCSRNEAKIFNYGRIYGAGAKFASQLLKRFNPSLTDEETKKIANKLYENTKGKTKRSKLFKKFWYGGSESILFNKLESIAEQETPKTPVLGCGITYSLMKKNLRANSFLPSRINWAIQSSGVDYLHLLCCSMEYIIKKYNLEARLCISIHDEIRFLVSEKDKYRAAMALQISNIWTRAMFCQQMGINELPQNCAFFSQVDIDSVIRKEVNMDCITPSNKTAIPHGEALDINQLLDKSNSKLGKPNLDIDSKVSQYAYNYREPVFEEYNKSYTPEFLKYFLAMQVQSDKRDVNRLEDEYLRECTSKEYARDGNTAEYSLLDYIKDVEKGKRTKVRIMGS
# Mip1Δ279 = molecular target: T4, Mip1Δ279 (Saccharomyces cerevisiae, UniProt P15801 30-975, del976-1254); assay: EMSA; faint shifted band, complex possibly retained in well (aggregation); not quantified; EMSA: 1 nM substrate, 0.2-12.5 nM polymerase, 20 mM Tris-HCl pH 8.0, 40 mM KCl, 10% glycerol, 0.1 mg/ml BSA, 2 mM DTT, 2 min at 0°C; native 8% Tris-glycine gel
# T4 sequence: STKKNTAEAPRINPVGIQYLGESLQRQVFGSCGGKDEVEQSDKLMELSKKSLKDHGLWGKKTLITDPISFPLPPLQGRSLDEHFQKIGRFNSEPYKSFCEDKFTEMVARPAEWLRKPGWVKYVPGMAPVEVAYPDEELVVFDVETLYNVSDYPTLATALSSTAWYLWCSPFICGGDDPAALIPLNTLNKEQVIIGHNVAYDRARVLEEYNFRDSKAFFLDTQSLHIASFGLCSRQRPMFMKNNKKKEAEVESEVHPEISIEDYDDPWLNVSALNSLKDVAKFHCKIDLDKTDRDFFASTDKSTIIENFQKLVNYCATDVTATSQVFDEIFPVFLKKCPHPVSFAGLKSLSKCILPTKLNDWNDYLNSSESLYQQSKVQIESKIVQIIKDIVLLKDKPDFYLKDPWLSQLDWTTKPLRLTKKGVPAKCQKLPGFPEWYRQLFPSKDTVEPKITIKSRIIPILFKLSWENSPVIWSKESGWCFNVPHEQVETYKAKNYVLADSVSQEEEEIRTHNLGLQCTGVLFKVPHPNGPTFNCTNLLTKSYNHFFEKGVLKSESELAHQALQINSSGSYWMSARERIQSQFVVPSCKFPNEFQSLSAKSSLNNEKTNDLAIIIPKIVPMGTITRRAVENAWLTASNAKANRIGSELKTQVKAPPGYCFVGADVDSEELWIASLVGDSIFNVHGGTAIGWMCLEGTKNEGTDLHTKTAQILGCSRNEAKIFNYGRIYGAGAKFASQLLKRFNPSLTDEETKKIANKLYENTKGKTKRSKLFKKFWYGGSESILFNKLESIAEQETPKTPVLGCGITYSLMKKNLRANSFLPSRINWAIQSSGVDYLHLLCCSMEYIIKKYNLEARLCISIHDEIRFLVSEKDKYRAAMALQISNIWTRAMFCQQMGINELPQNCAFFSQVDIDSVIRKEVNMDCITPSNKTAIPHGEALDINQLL
binder,measurement,setting,value
B1,Kd,[1],4.3 ± 0.68 nM
same,Kd,Mip1Δ216,0.95 ± 0.18 nM
same,Kd,Mip1Δ175,2.2 ± 0.75 nM
same,binding result,Mip1Δ279,binds
